28 molecules from patent publication US20220389118A1 (Chugai, published 2022) can be followed below.

Substitutions are numbered along the chain they refer to.

The chains are these.
T1: human FcγRIIa type R extracellular domain with C-terminal His tag (human, UniProt P12318 34-217)
T1 construct: extracellular domain; also called FcγRIIaR; FcγRIIa(R)
T1 sequence (looked up): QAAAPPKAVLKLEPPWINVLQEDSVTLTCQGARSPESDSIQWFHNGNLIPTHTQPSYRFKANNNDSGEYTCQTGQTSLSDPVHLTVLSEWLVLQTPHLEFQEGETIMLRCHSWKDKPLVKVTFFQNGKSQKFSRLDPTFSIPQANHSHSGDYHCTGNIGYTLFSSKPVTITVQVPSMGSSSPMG

T2: human FcγRIIb extracellular domain with C-terminal His tag (human, UniProt P31994 43-217)
T2 construct: extracellular domain
T2 sequence (looked up): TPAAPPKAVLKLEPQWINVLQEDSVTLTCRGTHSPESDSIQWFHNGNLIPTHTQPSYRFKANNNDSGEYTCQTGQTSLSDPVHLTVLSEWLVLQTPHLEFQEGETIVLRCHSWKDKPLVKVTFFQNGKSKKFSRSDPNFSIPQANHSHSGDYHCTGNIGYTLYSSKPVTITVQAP

B1: IL6R-BP445/IL6R-L (antibody, human IgG1, kappa)
heavy: QVQLQESGPGLVKPSETLSLTCAVSGHSISHDHAWSWVRQPPGEGLEWIGFISYSGITNYNPSLQGRVTISRDNSKNTLYLQMNSLRAEDTAVYYCARSLARTTAMDYWGEGTLVTVSSASTKGPSVFPLAPSSKSTSGGTAALGCLVKDYFPEPVTVSWNSGALTSGVHTFPAVLQSSGLYSLSSVVTVPSSSLGTQTYICNVNHKPSNTKVDKKVEPKSCDKTHTCPPCPAPDLLGDDSVFLFPPKPKDTLMISRTPEVTCVVIDVAEEDGEVKFNWYVDGVEVHNAKTKPREEQYNSTYRVVSVLTVLHQDWLNGKEYKCKVSNKALPRPIEKTISKAKGQPREPQVYTLPPSRDELTKNQVSLTCLVKGFYPSDIAVEWESNGQPENNYKTTPPVLDSDGSFFLYSKLTVDKSRWQQGNVFSCSVMHEALHNHYTQESLSLSP
light: not shown
notes: copies: 2 + 2
B2: IL6R-BP480/IL6R-L (antibody, human IgG1, kappa)
heavy: B1 heavy with I266V, V268L, A269S, E271D, R332A
light: not shown
notes: copies: 2 + 2
B3: IL6R-BP505/IL6R-L (antibody, human IgG1, kappa)
heavy: B1 heavy with E274D, R332A
light: not shown
notes: copies: 2 + 2
B4: IL6R-BP506/IL6R-L (antibody, human IgG1, kappa)
heavy: B1 heavy with E274P, Y298D
light: not shown
notes: copies: 2 + 2
B5: IL6R-BP555/IL6R-L (antibody, human IgG1, kappa)
heavy: B1 heavy with D235E, E274D, Y298D
light: not shown
notes: copies: 2 + 2
B6: IL6R-BP535/IL6R-L (antibody, human IgG1, kappa)
heavy: B1 heavy with A269G, Y298D, A329G, P398M
light: not shown
notes: copies: 2 + 2
B7: IL6R-BP532/IL6R-L (antibody, human IgG1, kappa)
heavy: B1 heavy with A269S, Y298D, P398M
light: not shown
notes: copies: 2 + 2
B8: IL6R-BP537/IL6R-L (antibody, human IgG1, kappa)
heavy: B1 heavy with D235E, A269G
light: not shown
notes: copies: 2 + 2
B9: IL6R-BP504/IL6R-L (antibody, human IgG1, kappa)
heavy: B1 heavy with E274P, R332A
light: not shown
notes: copies: 2 + 2
B10: IL6R-BP264/IL6R-L (antibody, human IgG1, kappa)
heavy: B1 heavy with I266V, A269S, Y298D
light: not shown
notes: copies: 2 + 2
B11: IL6R-BP262/IL6R-L (antibody, human IgG1, kappa)
heavy: B1 heavy with D235E, I266V, A269S, R332A
light: not shown
notes: copies: 2 + 2
B12: IL6R-BP507/IL6R-L (antibody, human IgG1, kappa)
heavy: B1 heavy with E274P
light: not shown
notes: copies: 2 + 2
B13: IL6R-BP531/IL6R-L (antibody, human IgG1, kappa)
heavy: B1 heavy with A269G, Y298D, P398M
light: not shown
notes: copies: 2 + 2
B14: IL6R-BP479/IL6R-L (antibody, human IgG1, kappa)
heavy: B1 heavy with V268L, R332A
light: not shown
notes: copies: 2 + 2
B15: IL6R-BP534/IL6R-L (antibody, human IgG1, kappa)
heavy: B1 heavy with A269S, Y298D, P398L
light: not shown
notes: copies: 2 + 2
B16: IL6R-BP552/IL6R-L (antibody, human IgG1, kappa)
heavy: B1 heavy with E274D, Y298D
light: not shown
notes: copies: 2 + 2
B17: IL6R-BP269/IL6R-L (antibody, human IgG1, kappa)
heavy: B1 heavy with D235E, I266V, A269S, Y298D, R332A
light: not shown
notes: copies: 2 + 2
B18: IL6R-BP484/IL6R-L (antibody, human IgG1, kappa)
heavy: B1 heavy with I266V, E271D, R332A
light: not shown
notes: copies: 2 + 2
B19: IL6R-BP494/IL6R-L (antibody, human IgG1, kappa)
heavy: B1 heavy with D235E, I266V, Y298D
light: not shown
notes: copies: 2 + 2
B20: IL6R-BP490/IL6R-L (antibody, human IgG1, kappa)
heavy: B1 heavy with D235E
light: not shown
notes: copies: 2 + 2
B21: IL6R-BP483/IL6R-L (antibody, human IgG1, kappa)
heavy: B1 heavy with I266V, V268L, R332A
light: not shown
notes: copies: 2 + 2
B22: IL6R-BP481/IL6R-L (antibody, human IgG1, kappa)
heavy: B1 heavy with R332A
light: not shown
notes: copies: 2 + 2
B23: IL6R-BP553/IL6R-L (antibody, human IgG1, kappa)
heavy: B1 heavy with E274D
light: not shown
notes: copies: 2 + 2
B24: IL6R-BP501/IL6R-L (antibody, human IgG1, kappa)
heavy: B1 heavy with D235E, R332A
light: not shown
notes: copies: 2 + 2
B25: IL6R-BP268/IL6R-L (antibody, human IgG1, kappa)
heavy: B1 heavy with I266V, A269S, Y298D, R332A
light: not shown
notes: copies: 2 + 2
B26: IL6R-BP495/IL6R-L (antibody, human IgG1, kappa)
heavy: B1 heavy with D235E, I266V, A269G, Y298D
light: not shown
notes: copies: 2 + 2
B27: IL6R-BP426/IL6R-L (antibody, human IgG1, kappa)
heavy: B1 heavy with I266V, E271D
light: not shown
notes: copies: 2 + 2
B28: IL6R-BP435/IL6R-L (antibody, human IgG1, kappa)
heavy: B1 heavy with I266V, A269S, E270D, Y298D, K328A, I334T
light: not shown
notes: copies: 2 + 2

What is called Kd is the free concentration of one partner at which half of the binding sites on the other are occupied at equilibrium, for simple one-to-one binding. A higher Kd goes with a looser complex.

The first experiment deals with T1, human FcγRIIa type R extracellular …. In words: SPR (Biacore).
On to B1, for which the Kd was 80 nM.
Still for that read-out and setting: the value for B2 was 6300 nM; that for B3 was 430 nM; that for B4 was 120 nM.
Same read-out and setting: for B5 the value was 160 nM; for B6, 92 nM; for B7, 94 nM.
Still for that read-out and setting: the value for B8 was 270 nM; that for B9 was 450 nM.
In the case of B10, binding was characterised by a dissociation constant (Kd) of 350 nM.
On the same count and under the same terms, for B11 the value was 2000 nM; for B12, 100 nM; for B13, 120 nM.
Same read-out and setting: the value for B14 was 900 nM; that for B15 was 91 nM.
On the same count and under the same terms, for B16 the value was 97 nM; for B17, 2200 nM.
B18 registered a Kd of 780 nM.
Same read-out and setting: for B19 the value was 250 nM; for B20, 110 nM; for B21, 1300 nM.
The same measure, in the same setting: for B22 the value was 400 nM; for B23, 86 nM.

The target in another experiment is T2, human FcγRIIb extracellular domain with …. As to the kind of experiment: SPR (Biacore). (In general: SPR reads the build-up and loss of mass on a sensor chip optically.)
In turn, B1 gave a Kd of 2.6 nM.
The molecule B2 yielded a Kd of 200 nM.
Still for that read-out and setting: the value for B3 was 21 nM.
On the same count and under the same terms, for B4 the value was 3.4 nM; for B24, 25 nM; for B5, 4.1 nM.
The same measure, in the same setting: for B6 the value was 4 nM.
Molecule B7 had a Kd of 3.2 nM.
Same read-out and setting: the value for B8 was 6.9 nM.
On the same count and under the same terms, for B9 the value was 24 nM; for B25, 92 nM; for B11, 120 nM.
The same measure, in the same setting: for B12 the value was 2.9 nM; for B13, 3.8 nM.
B14 returned an equilibrium dissociation constant (Kd) of 56 nM.
The same measure, in the same setting: the value for B15 was 3 nM; that for B16 was 2.6 nM; that for B26 was 9.7 nM.
Same read-out and setting: the value for B17 was 110 nM; that for B18 was 46 nM.
As for B19, the dissociation constant Kd is 6.6 nM.
Same read-out and setting: for B20 the value was 2.4 nM; for B21, 78 nM; for B22, 19 nM.
The molecule B23 had a Kd of 3.1 nM.

The target in another experiment is T3, human FcγRIa extracellular domain with C-terminal His tag (human, UniProt P12314 16-292).
T3 construct: extracellular domain
T3 sequence (P12314 16-292): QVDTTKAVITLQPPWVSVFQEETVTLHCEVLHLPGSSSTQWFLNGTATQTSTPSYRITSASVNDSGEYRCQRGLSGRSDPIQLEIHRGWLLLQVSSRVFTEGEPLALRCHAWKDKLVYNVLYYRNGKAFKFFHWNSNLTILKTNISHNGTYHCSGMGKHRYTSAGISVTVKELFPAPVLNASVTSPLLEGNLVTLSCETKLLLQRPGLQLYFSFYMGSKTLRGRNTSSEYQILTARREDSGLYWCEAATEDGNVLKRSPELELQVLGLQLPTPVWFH
As to the kind of experiment: SPR (Biacore).
As to B1, the dissociation constant Kd was determined as 2 nM.
Still for that read-out and setting: for B3 the value was 1.1 nM.
In turn, B4 registered a Kd of 3.1 nM.
On the same count and under the same terms, for B24 the value was 2.1 nM; for B5, 9.4 nM; for B6, 11 nM.
On the same count and under the same terms, for B7 the value was 12 nM.
Still for that read-out and setting: the value for B27 was 1 nM.
Turning to B8, the equilibrium dissociation constant (Kd) turned out to be 29 nM.
Same read-out and setting: the value for B28 was 1 nM; that for B9 was 1.4 nM; that for B10 was 7.4 nM.
Same read-out and setting: for B25 the value was 4.5 nM; for B11, 10 nM.
The same measure, in the same setting: for B12 the value was 2.6 nM; for B13, 9.4 nM.
In the case of B14, the Kd stood at 5.3 nM.
Same read-out and setting: the value for B15 was 9.3 nM.
Still for that read-out and setting: the value for B16 was 3.2 nM.
In turn, B26 registered a Kd of 8.3 nM.
B17 came in with a Kd of 14 nM.
B18 showed a Kd of 0.82 nM.
With B19, the affinity, expressed as Kd, was 3.9 nM.
Still for that read-out and setting: for B20 the value was 4.5 nM.
Still for that read-out and setting: for B21 the value was 1.3 nM; for B22, 1 nM; for B23, 3.4 nM.

Another experiment addresses T2, human FcγRIIb extracellular domain with …. In words: SPR (Biacore), ratio of KDs.
As to B3, the “KD(IIaH)/KD(IIb)” value was 514 and the “KD(IIaR)/KD(IIb)” value was found to be 20.
The matching figures for B9: 658 and 18.5.
The like results for B11 were, in that order, 375 and 17.
The matching figures for B14: 268 and 16.1.
With B17, the “KD(IIaH)/KD(IIb)” value is 637 and the “KD(IIaR)/KD(IIb)” value is 19.6.
Turning to B18, the “KD(IIaH)/KD(IIb)” value was 241 and the “KD(IIaR)/KD(IIb)” value came out at 17.1.
The like results for B19 were, in that order, 821 and 38.6.
The like results for B21 were, in that order, 231 and 16.8.
Regarding B22, the “KD(IIaH)/KD(IIb)” value came to 350 and the “KD(IIaR)/KD(IIb)” value was found to be 20.5.

In a further experiment the target is T1, human FcγRIIa type R extracellular …. In words: SPR (Biacore), parent IL6R-B3/IL6R-L.
Regarding B3, the “KD(IIaR) parent/KD(IIaR) altered polypeptide” value worked out at 2.6.
On to B9, for which the “KD(IIaR) parent/KD(IIaR) altered polypeptide” value came out at 2.4.
With B11, the “KD(IIaR) parent/KD(IIaR) altered polypeptide” value turned out to be 0.5.
The same measure, in the same setting: the value for B14 was 1.2.
On the same count and under the same terms, the value for B17 was 0.5; that for B18 was 1.4; that for B19 was 4.3.
On the same count and under the same terms, the value for B21 was 0.8.
As for B22, the “KD(IIaR) parent/KD(IIaR) altered polypeptide” value turned out to be 2.8.

The target of the next experiment is T2, human FcγRIIb extracellular domain with …. In words: SPR (Biacore), parent IL6R-B3/IL6R-L.
With B3, the “KD(IIb) parent/KD(IIb) altered polypeptide” value was found to be 145.
For the molecule B9, the “KD(IIb) parent/KD(IIb) altered polypeptide” value was found to be 128.
Still for that read-out and setting: the value for B11 was 25.8; that for B14 was 55.5; that for B17 was 27.4.
Still for that read-out and setting: the value for B18 was 67.8; that for B19 was 471.
The same measure, in the same setting: for B21 the value was 39.7; for B22, 160.
